# pKd: −log10 of the molar value. Values joined by “and” are separate entries in the source; they are usually repeats but may differ in a detail not shown here. Equal values may be shown once.
# Experiments:
# [1] = target: LapD^TMcys lacking sfGFP (non-fluorescent; C304A, C397S) (Pseudomonas fluorescens Pf0-1) (UniProt Q3KK31); assay: SEC-MALS; apo protein, ~10 mg/ml (~140 μM), Superdex 200 10/300; 25 mM Tris-HCl pH 7.6, 250 mM NaCl, 0.005% LMNG, 0.04% CHAPS; protein-conjugate analysis
# [2] = target: LapD (Pseudomonas fluorescens Pf0-1), full-length, non-fluorescent, detergent-solubilized (Pseudomonas fluorescens Pf0-1) (UniProt Q3KK31); assay: SEC-MALS; LapD (~28 μM) incubated with 100 μM c-di-GMP, concentrated ~5-fold; 20 μM c-di-GMP in the mobile phase
# [3] = target: LapD (Pseudomonas fluorescens Pf0-1), full-length, non-fluorescent, detergent-solubilized (Pseudomonas fluorescens Pf0-1) (UniProt Q3KK31); assay: SEC-MALS; apo protein, ~10 mg/ml (~140 μM), Superdex 200 10/300; 25 mM Tris-HCl pH 7.6, 250 mM NaCl, 0.005% LMNG, 0.04% CHAPS; protein-conjugate analysis
# [4] = target: LapG labeled with Oregon Green 488 maleimide at C135 (Pseudomonas fluorescens Pf0-1); assay: fluorescence polarisation; fluorescence anisotropy; 1 µM Oregon Green 488-labeled LapG fixed, detergent-solubilized LapD titrated 1–36 µM; without c-di-GMP; apparent
# [5] = target: LapD (Pseudomonas fluorescens Pf0-1), full-length, non-fluorescent, detergent-solubilized (Pseudomonas fluorescens Pf0-1) (UniProt Q3KK31); assay: SEC-MALS; LapD incubated with LapG and c-di-GMP; c-di-GMP omitted from the mobile phase
# [6] = target: LapD (Pseudomonas fluorescens Pf0-1), full-length, non-fluorescent, detergent-solubilized (Pseudomonas fluorescens Pf0-1) (UniProt Q3KK31); assay: SEC-MALS; LapD incubated with 100 μM c-di-GMP and a 3-fold molar excess of LapG over LapD dimer, concentrated; 20 μM c-di-GMP in the mobile phase
# [7] = target: LapG labeled with Oregon Green 488 maleimide at C135 (Pseudomonas fluorescens Pf0-1); assay: fluorescence polarisation; fluorescence anisotropy; 1 µM Oregon Green 488-labeled LapG fixed, detergent-solubilized LapD titrated 1–36 µM; with 100 µM c-di-GMP; apparent
# [8] = target: LapD^TMcys-A602C lacking sfGFP (non-fluorescent) (Pseudomonas fluorescens Pf0-1) (UniProt Q3KK31); assay: SEC-MALS; apo protein, ~10 mg/ml (~140 μM), Superdex 200 10/300; 25 mM Tris-HCl pH 7.6, 250 mM NaCl, 0.005% LMNG, 0.04% CHAPS; protein-conjugate analysis
# [9] = target: LapD–sfGFP (native LapD with C-terminal monomeric superfolder GFP) (Pseudomonas fluorescens Pf0-1) (UniProt Q3KK31); assay: as above
substance,measurement,setting,value
"LapD^TMcys lacking sfGFP (non-fluorescent; C304A, C397S) (from UniProt Q3KK31 1-648) (receptor)",stoichiometry N,[1],2
"LapD (Pseudomonas fluorescens Pf0-1), full-length, non-fluorescent, detergent-solubilized (from UniProt Q3KK31 1-648) (receptor)",stoichiometry N,[2],4 and 2
same,stoichiometry N,[3],2
same,pKd,[4],4.93
same,stoichiometry N,[5],2
same,stoichiometry N,[6],4
same,pKd,[7],5.72
LapD^TMcys-A602C lacking sfGFP (non-fluorescent) (from UniProt Q3KK31 1-648) (receptor),stoichiometry N,[8],2
LapD–sfGFP (native LapD with C-terminal monomeric superfolder GFP) (from UniProt Q3KK31 1-648) (receptor),stoichiometry N,[9],2

# — paper PMC5231407
